Molecular target: T1, Plasmalemma vesicle-associated protein (PV1), recombinant mouse (Mus musculus, UniProt Q91VC4)
T1 construct: plasmalemma vesicle-associated protein (PV1), mouse, recombinant; also called mouse PV1; recombinant mouse PV1
Experiment: SPR; ProteOn XPR36; mouse PV1 amine-coupled to a GLC chip at ~200 RU; antibodies injected at 100 μl/min; 25 °C, PBS pH 7.2; 1:1 Langmuir model
Details: both partners purified

T1 sequence (Q91VC4 whole entry): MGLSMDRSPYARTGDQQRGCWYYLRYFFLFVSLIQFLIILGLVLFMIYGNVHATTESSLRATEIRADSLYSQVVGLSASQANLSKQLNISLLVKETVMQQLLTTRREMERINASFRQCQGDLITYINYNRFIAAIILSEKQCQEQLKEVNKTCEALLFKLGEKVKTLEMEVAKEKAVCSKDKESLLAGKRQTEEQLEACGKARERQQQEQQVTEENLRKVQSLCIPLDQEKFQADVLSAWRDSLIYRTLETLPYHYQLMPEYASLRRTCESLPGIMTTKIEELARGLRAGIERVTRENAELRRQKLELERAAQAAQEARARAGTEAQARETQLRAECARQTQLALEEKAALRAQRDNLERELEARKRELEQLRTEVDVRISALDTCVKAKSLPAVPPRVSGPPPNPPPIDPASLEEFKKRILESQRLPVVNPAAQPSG

B1: αPV1 IgG (de novo sequenced Meca32 variant as a human IgG1 chimeric antibody) (antibody, V domains shown)
VH: EVQLVESGGGLVQPGRSMKLSCAASGFTFSDYYMAWVRQAPKKGLEWVASISYEGNKTYYGDSVKGRFTISRDNAKSILYLQMNSLKSEDTATYYCARQSYSSYLFDYWGQGVM
VL: DIQMTQTPSSMSASLGERVTLSCGTSQGVNLFLNWYQQKPDGTIKPLIFFTSHLQSGVPSRFSGSGSGTAYSLTISSLEPEDFAVYYCQQYDSSPPTFGGGTKLYLK
notes: human IgG1 heavy-chain constant region (chimeric antibody); VL of the chosen Meca32 variant; light-chain constant region; Human IgG1 chimera of rat variable domains; also called anti-PV1 antibody; αPV1 mAb; source: HEK293F, transient, purified (protein A; SEC if necessary)
Kd: 0.5 nM
